Assay results taken from US20240116985A1, “STAPLED PEPTIDES AND METHODS THEREOF” (priority 2020, published 2024).
One block for each binder: values may come before it. Starred links: 1 amine or outer side, 2 acyl side, 3 side chain; linkers in the order of their positions; H or OH if unused. Positions of bridges follow the written chain, without caps; N, C: chain ends. Non-standard residues stand in square brackets, D forms with d. Primed or numbered codes have the meaning given here. PyrS2″ = (S)-3-amino-1-((pent-4-en-1-yloxy)carbonyl)pyrrolidine-3-carboxylic acid (stapling residue), C=CCCCOC(=O)N1CC[C@@](N[*:1])(C(=O)[*:2])C1; B5(24) = 2-amino-2-(pent-4-en-1-yl)hept-6-enoic acid, 2,2-bis(4-pentenyl)glycine (stitching residue), C=CCCCC(CCCC=C)(N[*:1])C(=O)[*:2]; B5(4) = 2,2-bis(4-pentenyl)glycine = 2-amino-2-(pent-4-en-1-yl)hept-6-enoic acid (stitching residue), C=CCCCC(CCCC=C)(N[*:1])C(=O)[*:2]; B5(5) = 2,2-bis(4-pentenyl)glycine, 2-amino-2-(pent-4-en-1-yl)hept-6-enoic acid (stitching residue), C=CCCCC(CCCC=C)(N[*:1])C(=O)[*:2]; B5(8) = 2,2-bis(4-pentenyl)glycine (2-amino-2-(pent-4-en-1-yl)hept-6-enoic acid, stitching residue), C=CCCCC(CCCC=C)(N[*:1])C(=O)[*:2]; TfeGA = (S)-2-amino-3-((carboxymethyl)(2,2,2-trifluoroethyl)amino)propanoic acid, O=C([C@H](CN(CC(=O)[*:3])CC(F)(F)F)N[*:1])[*:2]; PyrS2 = (S)-3-amino-1-((pent-4-en-1-yloxy)carbonyl)pyrrolidine-3-carboxylic acid, C=CCCCOC(=O)N1CC[C@@](N[*:1])(C(=O)[*:2])C1; B5(12) = 2-amino-2-(pent-4-en-1-yl)hept-6-enoic acid (two olefin side chains), C=CCCCC(CCCC=C)(N[*:1])C(=O)[*:2]; PyrS2(5) = (S)-3-amino-1-((alkenyloxy)carbonyl)pyrrolidine-3-carboxylic acid, carbamate stapling residue; B5 = 2-amino-2-(pent-4-en-1-yl)hept-6-enoic acid, C=CCCCC(CCCC=C)(N[*:1])C(=O)[*:2]; Phe(3-COOH) = N[C@@H](Cc1cccc(C(=O)O)c1)C(=O)O; Phe(2-CF3) = N[C@@H](Cc1ccccc1C(F)(F)F)C(=O)O; Ala(4-thiazolyl) = N[C@@H](Cc1cscn1)C(=O)O; Phe(2-Cl) = N[C@@H](Cc1ccccc1Cl)C(=O)O; Bta = N[C@@H](Cc1csc2ccccc12)C(=O)O; Lys(iPr) = CC(C)NCCCC[C@H](N)C(=O)O; αAllylPro = C=CC[C@@]1(C(=O)O)CCCN1; tBuAla = CC(C)(C)C[C@H](N)C(=O)O; 2Thi = N[C@@H](Cc1cccs1)C(=O)O; 3Thi = N[C@@H](Cc1ccsc1)C(=O)O; Cha = N[C@@H](CC1CCCCC1)C(=O)O; Cit = NC(=O)NCCC[C@H](N)C(=O)O; S8 = C=CCCCCCC[C@](C)(N)C(=O)O; hSer = N[C@@H](CCO)C(=O)O; Nle = CCCC[C@H](N)C(=O)O; Aib = CC(C)(N)C(=O)O

Columns and labels:
Bcat-Halo [1] = target: Bcat-Halo (UniProt P35222); experiment: NanoBRET in HEK293 cells (Bcat-Halo / TCF4-Luc), absolute IC50; competitor: TCF4-Luc
[2] = target: full-length beta-Catenin (Uniprot ID P35222) (Homo sapiens (Human)) (UniProt P35222); experiment: fluorescence polarization competition; full-length beta-catenin; competitor displaced: 5FAM-TCF4 10-53
Target sequence in this assay (P35222 2-781 limits assumed): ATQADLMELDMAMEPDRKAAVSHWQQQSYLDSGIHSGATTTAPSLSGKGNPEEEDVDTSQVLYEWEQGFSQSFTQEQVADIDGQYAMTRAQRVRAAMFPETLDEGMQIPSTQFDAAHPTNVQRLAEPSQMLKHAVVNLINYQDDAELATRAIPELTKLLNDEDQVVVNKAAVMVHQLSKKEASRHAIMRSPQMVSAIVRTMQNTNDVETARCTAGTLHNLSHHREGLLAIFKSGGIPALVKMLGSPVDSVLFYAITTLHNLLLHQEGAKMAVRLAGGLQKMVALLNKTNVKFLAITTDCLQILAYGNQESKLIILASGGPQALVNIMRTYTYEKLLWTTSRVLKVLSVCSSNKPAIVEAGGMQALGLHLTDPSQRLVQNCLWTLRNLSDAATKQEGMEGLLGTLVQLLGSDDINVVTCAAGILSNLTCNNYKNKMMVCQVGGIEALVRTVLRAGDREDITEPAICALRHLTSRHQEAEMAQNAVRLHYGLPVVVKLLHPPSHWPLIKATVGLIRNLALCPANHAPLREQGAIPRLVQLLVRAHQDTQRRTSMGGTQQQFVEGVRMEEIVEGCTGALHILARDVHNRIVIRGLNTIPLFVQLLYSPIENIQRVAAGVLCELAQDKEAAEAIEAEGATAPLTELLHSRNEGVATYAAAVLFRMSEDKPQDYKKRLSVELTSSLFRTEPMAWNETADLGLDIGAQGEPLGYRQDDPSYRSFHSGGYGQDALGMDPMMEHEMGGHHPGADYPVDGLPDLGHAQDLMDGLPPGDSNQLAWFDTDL

[3] = target: full-length beta-Catenin (Uniprot ID P35222) (Homo sapiens (Human)) (UniProt P35222); experiment: fluorescence polarization competition; full-length beta-catenin + 5FAM-TCF4(10-53) probe; peptide titrated
Target sequence in this assay (P35222 2-781 limits assumed): as above

Bcat-Halo [4] = target: Bcat-Halo (UniProt P35222); experiment: NanoBRET Abs IC50 in HEK293 cells; competitor TCF4-Luc on Bcat-Halo
[5] = target: full-length beta-Catenin (Uniprot ID P35222) (Homo sapiens (Human)) (UniProt P35222); experiment: fluorescence polarization competition vs 5FAM-TCF4(10-53) on full-length beta-catenin
Target sequence in this assay (P35222 2-781 limits assumed): as above

[6] = target: full-length beta-Catenin (Uniprot ID P35222) (Homo sapiens (Human)) (UniProt P35222); experiment: fluorescence polarization competition, 5FAM-TCF4 10-53 probe on full-length beta-catenin
Target sequence in this assay (P35222 2-781 limits assumed): as above

[7] = target: full-length beta-Catenin (Uniprot ID P35222) (Homo sapiens (Human)) (UniProt P35222); experiment: FP competition; full-length beta-catenin + 5FAM-TCF4(10-53) probe
Target sequence in this assay (P35222 whole entry, the tested form may be a part): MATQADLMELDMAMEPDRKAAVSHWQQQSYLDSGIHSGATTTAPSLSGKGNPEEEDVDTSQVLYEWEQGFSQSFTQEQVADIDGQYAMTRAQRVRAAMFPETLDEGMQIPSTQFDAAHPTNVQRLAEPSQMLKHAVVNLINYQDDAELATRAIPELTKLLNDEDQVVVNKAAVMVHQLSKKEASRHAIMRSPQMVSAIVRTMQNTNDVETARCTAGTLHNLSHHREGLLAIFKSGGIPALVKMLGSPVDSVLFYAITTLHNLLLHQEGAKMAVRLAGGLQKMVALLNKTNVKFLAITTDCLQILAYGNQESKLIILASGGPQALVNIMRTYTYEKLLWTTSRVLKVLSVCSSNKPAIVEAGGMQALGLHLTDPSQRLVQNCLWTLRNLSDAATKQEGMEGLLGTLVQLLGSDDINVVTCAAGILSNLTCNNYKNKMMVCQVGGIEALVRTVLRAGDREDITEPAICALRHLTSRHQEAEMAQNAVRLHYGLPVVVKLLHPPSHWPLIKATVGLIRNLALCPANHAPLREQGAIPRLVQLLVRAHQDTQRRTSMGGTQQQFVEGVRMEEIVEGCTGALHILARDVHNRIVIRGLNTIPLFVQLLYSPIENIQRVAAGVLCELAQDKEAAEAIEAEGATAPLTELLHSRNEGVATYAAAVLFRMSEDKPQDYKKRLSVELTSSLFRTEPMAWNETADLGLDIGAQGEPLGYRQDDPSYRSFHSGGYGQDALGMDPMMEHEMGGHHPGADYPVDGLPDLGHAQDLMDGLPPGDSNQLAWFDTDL

[8] = target: full-length beta-Catenin (Uniprot ID P35222) (Homo sapiens (Human)) (UniProt P35222); experiment: fluorescence polarization competition; competitor 5FAM-TCF4 10-53
Target sequence in this assay (P35222 whole entry, the tested form may be a part): as above

[9] = target: Bcat-Halo (beta-catenin HaloTag construct expressed in HEK293 cells) (UniProt P35222); experiment: NanoBRET target engagement in HEK293 cells, absolute IC50; competitor TCF4-Luc
[10] = target: full-length beta-Catenin (Uniprot ID P35222) (Homo sapiens (Human)) (UniProt P35222); experiment: FP competition vs 5FAM-TCF4(10-53), full-length beta-catenin
Target sequence in this assay (P35222 2-781 limits assumed): as the sequence (P35222 2-781 limits assumed) above

[11] = target: full-length beta-Catenin (Uniprot ID P35222) (Homo sapiens (Human)) (UniProt P35222); experiment: fluorescence polarization competition; 10 nM full-length beta-catenin with 10 nM 5FAM-TCF4 (residues 10-53) probe as competitor
Target sequence in this assay (P35222 2-781 limits assumed): as above

[12] = target: full-length beta-Catenin (Uniprot ID P35222) (Homo sapiens (Human)) (UniProt P35222); experiment: fluorescence polarization competition; 10 nM full-length beta-catenin + 10 nM 5FAM-TCF4(10-53), peptide titrated
Target sequence in this assay (P35222 whole entry, the tested form may be a part): as the sequence (P35222 whole entry, the tested form may be a part) above

Sequence of Bcat-Halo (P35222 whole entry): as the sequence (P35222 whole entry, the tested form may be a part) above
Sequence of Bcat-Halo (beta-catenin HaloTag construct expressed in HEK293 cells) (P35222 whole entry): as the sequence (P35222 whole entry, the tested form may be a part) above

Binder: Ac-[αAllylPro]D[Cha][B5(24)]DDAAFL[PyrS2″][Phe(2-Cl)][Bta]T-NH2 (staple 1-4, 4-11) [I-1139]
- IC50 (Bcat-Halo [4]): 18000 nM
- IC50 [5]: 22 nM
- EC50 [6]: 22 nM

Binder: Ac-[αAllylPro]D[tBuAla][B5(12)]DTAAFN[PyrS2][3Thi][Bta]-NH2 (staple 1-4, 4-11; also: later eluting staple isomer) [I-860]
- IC50 [10]: 61 nM
- EC50 [11]: 61 nM

Binder: Ac-[αAllylPro]D[tBuAla][B5(12)]DLAAFN[PyrS2][3Thi][Bta]-NH2 (staple 1-4, 4-11) [I-862]
- IC50 [10]: 123 nM
- EC50 [11]: 123 nM

Binder: Ac-[αAllylPro]D[Cha][B5(4)]DDALFS[PyrS2″][Phe(2-Cl)][Bta]Q-NH2 (staple 1-4, 4-11) [I-1148]
- IC50 (Bcat-Halo [4]): 21500 nM
- IC50 [5]: 50 nM
- EC50 [6]: 50 nM

Binder: Ac-[αAllylPro]D[tBuAla][B5]D[Phe(3-COOH)][Aib]GFL[PyrS2][Phe(2-Cl)][Bta]Q-NH2 (staple 1-4, 4-11) [I-1689]
- IC50 [8]: 25.5 nM
- IC50 [9]: 12500 nM

Binder: Ac-[αAllylPro]D[tBuAla][B5]D[Phe(3-COOH)][Nle]GFL[PyrS2][Phe(2-Cl)][Bta]Q-NH2 (staple 1-4, 4-11) [I-1688]
- IC50 [8]: 59 nM
- IC50 [9]: 21500 nM

Binder: Ac-[αAllylPro]D[tBuAla][B5(4)]D[Phe(3-COOH)]AGFL[PyrS2(5)][Phe(2-Cl)][Bta]Q-NH2 (staple 1-4, 4-11) [I-1687]
- IC50 [8]: 42 nM
- IC50 [9]: 18600 nM

Binder: Ac-[αAllylPro]D[Cha][B5(24)]DDAAFS[PyrS2″][Phe(2-Cl)][Bta][hSer]-NH2 (staple 1-4, 4-11) [I-1137]
- IC50 (Bcat-Halo [4]): 12000 nM
- IC50 [5]: 8 nM
- EC50 [6]: 8 nM

Binder: Ac-[αAllylPro]D[tBuAla][B5]D[TfeGA][Aib]GFT[PyrS2][Phe(2-Cl)][Bta]Q-NH2 (staple 1-4, 4-11) [I-1696]
- IC50 [8]: 32 nM
- IC50 [9]: 35500 nM

Binder: Ac-[αAllylPro]D[Cha][B5(4)]DDLLFT[PyrS2″][Phe(2-Cl)][Bta]S-NH2 (staple 1-4, 4-11) [I-1152]
- IC50 (Bcat-Halo [4]): 14200 nM
- IC50 [5]: 65 nM
- EC50 [6]: 65 nM

Binder: Ac-[αAllylPro]N[Cha][B5(5)]DQ[Lys(iPr)]AFN[PyrS2″][3Thi][Bta][hSer]-NH2 (staple 1-4, 4-11) [I-2074]
- IC50 [12]: 789 nM

Binder: Ac-[αAllylPro]N[Cha][B5(5)]DQ[Lys(iPr)]AFN[PyrS2″]F[Bta]-NH2 (staple 1-4, 4-11) [I-2073]
- IC50 [12]: 398 nM

Binder: Ac-[αAllylPro]D[tBuAla][B5]D[TfeGA][Aib]AFT[PyrS2][Phe(2-Cl)][Bta]Q-NH2 (staple 1-4, 4-11) [I-1693]
- IC50 [8]: 10 nM
- IC50 [9]: 4600 nM

Second part, the binder after the results:

- IC50 (Bcat-Halo [1]): 14700 nM
- IC50 [2]: 5 nM
- EC50 [3]: 5 nM
Binder: Ac-[αAllylPro]D[tBuAla][B5(8)]DEAAFN[PyrS2″][3Thi][Bta]H-NH2 (staple 1-4, 4-11) [I-697]

- IC50 (Bcat-Halo [4]): 21100 nM
- IC50 [5]: 10 nM
- EC50 [6]: 10 nM
Binder: Ac-[αAllylPro]D[Cha][B5(4)]DDLAFS[PyrS2″][Phe(2-Cl)][Bta]Q-NH2 (staple 1-4, 4-11) [I-1147]

- IC50 [7]: 703 nM
B1: I-2016 (peptide)
peptide: Ac-[αAllylPro]D[tBuAla][B5(4)]NTAAYN[PyrS2″][3Thi][Bta]Q-NH2
modifications: staple 1-4, 4-11; not fully specified; printed as Ac-PL3-Asp-Npg-B5-Asn-Thr-Ala-Ala-Tyr-Asn-PyrS2-3Thi-BztA-Gln-NH2

- IC50 [8]: 93 nM
- IC50 [9]: > 20000 nM
Binder: Ac-[αAllylPro]D[tBuAla][B5]D[TfeGA][Nle]GFT[PyrS2][Phe(2-Cl)][Bta]Q-NH2 (staple 1-4, 4-11) [I-1695]

- IC50 [12]: 592 nM
Binder: Ac-[αAllylPro]N[Cha][B5(5)]DQ[Lys(iPr)]AFN[PyrS2″][Ala(4-thiazolyl)][Bta][hSer]-NH2 (staple 1-4, 4-11) [I-2071]

- IC50 (Bcat-Halo [4]): 21400 nM
- IC50 [5]: 12 nM
- EC50 [6]: 12 nM
Binder: Ac-[αAllylPro]D[Cha][B5(4)]DDLAFT[PyrS2″][Phe(2-Cl)][Bta]S-NH2 (staple 1-4, 4-11) [I-1150]

- IC50 [12]: 49 nM
Binder: Ac-[αAllylPro]D[tBuAla][B5(4)]D[Phe(3-COOH)]AAFL[PyrS2″][Phe(2-CF3)][Bta][dA]-NH2 (staple 1-4, 4-11) [I-2091]

- IC50 [7]: 522 nM
B2: I-2015 (peptide)
peptide: Ac-[αAllylPro]D[tBuAla][B5(4)]NTAAYN[PyrS2″][3Thi][Bta]Q-NH2
modifications: staple 1-4, 4-11; not fully specified; printed as Ac-PL3-Asp-Npg-B5-Asn-Thr-Ala-Ala-Tyr-Asn-PyrS2-3Thi-BztA-Gln-NH2

- IC50 [8]: 57 nM
- IC50 [9]: 43600 nM
Binder: Ac-[αAllylPro]D[tBuAla][B5]D[TfeGA]AGFT[PyrS2][Phe(2-Cl)][Bta]Q-NH2 (staple 1-4, 4-11) [I-1694]

- IC50 (Bcat-Halo [4]): 32500 nM
- IC50 [5]: 33 nM
- EC50 [6]: 33 nM
Binder: Ac-[αAllylPro]D[Cha][B5(4)]DDAAFL[PyrS2″][Phe(2-Cl)][Bta][dT]-NH2 (staple 1-4, 4-11) [I-1140]

- IC50 [12]: 2330 nM
Binder: Ac-[αAllylPro]N[Cha][B5(5)]DQ[Lys(iPr)]AFN[PyrS2″][2Thi][Bta][hSer]-NH2 (staple 1-4, 4-11) [I-2075]

- IC50 [12]: 8260 nM
Binder: Ac-[αAllylPro]N[Cha][B5(5)]DQ[Lys(iPr)]A[Ala(4-thiazolyl)]N[PyrS2″]F[Bta][hSer]-NH2 (staple 1-4, 4-11) [I-2072]

- IC50 [10]: 40 nM
- EC50 [11]: 40 nM
Binder: Ac-[αAllylPro]D[tBuAla][B5(12)]D[Cit]AAFN[PyrS2][3Thi][Bta]-NH2 (staple 1-4, 4-11) [I-861]

- IC50 [8]: 17 nM
- IC50 [9]: 10400 nM
Binder: Ac-[αAllylPro]D[tBuAla][B5]D[TfeGA][Nle]AFT[PyrS2][Phe(2-Cl)][Bta]Q-NH2 (staple 1-4, 4-11) [I-1692]

- IC50 (Bcat-Halo [4]): 19800 nM
- IC50 [5]: 18 nM
- EC50 [6]: 18 nM
Binder: Ac-[αAllylPro]D[Cha][B5(24)]DDAAFS[PyrS2″][Phe(2-Cl)][Bta]L-NH2 (staple 1-4, 4-11) [I-1138]

- IC50 (Bcat-Halo [4]): 25300 nM
- IC50 [5]: 30 nM
- EC50 [6]: 30 nM
Binder: Ac-[αAllylPro]D[Cha][B5(4)]DDALFT[PyrS2″][Phe(2-Cl)][Bta]S-NH2 (staple 1-4, 4-11) [I-1151]

- IC50 (Bcat-Halo [1]): 18100 nM
- IC50 [2]: 34 nM
- EC50 [3]: 34 nM
Binder: Ac-[αAllylPro]DI[B5(8)]D[TfeGA]AAFN[S8][3Thi][Bta]Q-NH2 (staple 1-4, 4-11) [I-701]

- IC50 [7]: 109 nM
Binder: Ac-[αAllylPro]D[tBuAla][B5(5)]D[Phe(3-COOH)]AAFA[PyrS2″][Phe(2-Cl)][Bta]F-NH2 (staple 1-4, 4-11) [I-2025]
